Laboratory results: patent US6403769

Experiments:
[1] = molecular target: keratinocyte growth factor (KGF) (human) (UniProt P21781); assay: 50% displacement of 125I-KGF by unlabeled KGF, fusion protein captured on Gamma Bind G (Scatchard analysis)
[2] = molecular target: keratinocyte growth factor receptor (KGFR) (UniProt P21803); assay: cell-based or functional assay
[3] = molecular target: keratinocyte growth factor receptor (KGFR) (UniProt P21803); assay: competition with 125I-KGF on 32D cells expressing KGFR
[4] = molecular target: keratinocyte growth factor receptor (KGFR) (UniProt P21803); assay: flow cytometry on KGFR-containing B5-589 cells and NIH 3T3 transfectants, FITC rabbit anti-mouse IgG
[5] = molecular target: KGFR-HFc fusion protein (construct not specified); assay: binding of 125I-aFGF to KGFR-HFc in solution, capture on Gamma Bind G
[6] = molecular target: bovine brain aFGF (bovine) (UniProt P03968); assay: comparison value for native KGFR; method not described
Sequence of bovine brain aFGF (bovine) (P03968 16-155 limits assumed): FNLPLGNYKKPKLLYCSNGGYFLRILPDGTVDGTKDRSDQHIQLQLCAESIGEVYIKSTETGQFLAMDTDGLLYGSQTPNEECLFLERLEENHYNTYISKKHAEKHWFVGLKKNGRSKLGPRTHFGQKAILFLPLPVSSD

[7] = molecular target: keratinocyte growth factor (KGF) (human) (UniProt P21781); assay: comparison value for native KGFR on epithelial cells; method not described

Sequence of KGF-HFc fusion protein (P21781 other isoform, or with tags, fused parts or gaps limits assumed): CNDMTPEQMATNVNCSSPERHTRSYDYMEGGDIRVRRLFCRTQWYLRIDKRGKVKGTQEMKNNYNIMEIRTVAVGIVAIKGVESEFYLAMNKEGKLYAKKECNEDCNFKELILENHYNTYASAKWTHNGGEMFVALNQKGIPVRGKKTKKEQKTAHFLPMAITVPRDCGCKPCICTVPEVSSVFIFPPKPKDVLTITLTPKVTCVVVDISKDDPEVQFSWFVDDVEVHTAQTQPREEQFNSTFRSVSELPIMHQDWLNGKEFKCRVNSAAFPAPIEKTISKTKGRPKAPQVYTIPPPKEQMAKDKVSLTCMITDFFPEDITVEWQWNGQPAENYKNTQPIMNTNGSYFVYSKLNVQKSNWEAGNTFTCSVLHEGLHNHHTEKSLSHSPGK
Sequence of keratinocyte growth factor (KGF) (human) (P21781 32-194 limits assumed): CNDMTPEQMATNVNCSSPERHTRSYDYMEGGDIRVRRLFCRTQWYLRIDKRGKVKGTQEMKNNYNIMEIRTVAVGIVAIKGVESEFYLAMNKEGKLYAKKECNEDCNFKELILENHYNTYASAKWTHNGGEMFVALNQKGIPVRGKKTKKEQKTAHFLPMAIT
Sequence of bovine brain aFGF (P03968 16-155 limits assumed): as the sequence (P03968 16-155 limits assumed) above

**Q.** How did the Kd [1] turn out when “D3-HFc fusion protein (from UniProt P21803 157-232; P01868 98-324)” was run?
**A.** Its Kd is 0.02 nM.

**Q.** Which half-maximal stimulation of 3H-thymidine uptake in BALB/MK cells [2] does the source give for “KGF-HFc fusion protein (from UniProt P21781 32-194; P01868 98-324)” here?
**A.** Its half-maximal stimulation of 3H-thymidine uptake in BALB/MK cells is 45 pM.

**Q.** And the stimulation of 3H-thymidine uptake in BALB/MK cells [2]?
**A.** The stimulation of 3H-thymidine uptake in BALB/MK cells was greater than 20 fold.

**Q.** What about the Kd [3] of the same substance?
**A.** Its Kd is 1.4 nM.

**Q.** What about the fold increase in fluorescent intensity compared to untransfected NIH 3T3 cells [4] of the same substance?
**A.** The fold increase in fluorescent intensity compared to untransfected NIH 3T3 cells was 10 to 100 fold.

**Q.** With “bovine brain aFGF (from UniProt P03968 16-155) (ligand)” as the substance, how does the ligand concentration at which saturable binding was achieved [5] read?
**A.** The ligand concentration at which saturable binding was achieved was 40 to 50 ng/mL.

**Q.** Which results are given for “keratinocyte growth factor receptor (KGFR) (from UniProt P21803 22-821)”?
**A.** Kd [6]: 0.6 nM; Kd [7]: 0.18 nM
